# Experimental data taken from the supplement of paper PMC12636428.
# Test system: Saccharomyces cerevisiae
# Assay: transcriptional activation domain activity (GFP:mCherry ratio, weighted mean of sorted bins, harmonized to initial dataset scale) (arbitrary fluorescence ratio units); higher = stronger transcriptional activation
# Conditions: beta-estradiol 1 µM; induction time 4 h
# Procedure: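 53-aa protein tiles (fungal proteins plus yeast TF control tiles) fused C-terminally to a DBD-estrogen-binding domain-mCherry synthetic TF, integrated in S. cerevisiae (URA3 locus) with a GFP reporter. Cells were induced with 1 uM beta-estradiol for 4 h at 30 C, FACS-sorted into 8 bins by GFP:mCherry ratio and barcodes sequenced. Activity is the read-weighted mean bin fluorescence (GFP:mCherry), averaged over barcodes (median 12); tiles under 50 reads were discarded. New active-learning values were harmonized by linear fit onto the scale of the initial (Hummel et al.) dataset. The assay saturates at low and high signal.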
row,Sequence,transcriptional activation domain activity
1,FHYGGRADVTSVFTVEARTSLTVDDFRKRILLAWANLRLHHVLLMSTVLRDSA,65000
2,QPIASCVVKVNFGMISNDSNFCGLVSGIIYVYMGLGGAFMLLVAVCVIKVRYT,67700
3,MRQRLGGQLFSKSFFYALLVTSTWSSKLVYLSPHFTSLPPLLILLYAPTFLLL,60600
4,MLRDYWLILIVNCQTIGCKLPIVMWSPLCLFLTLNHGLLWLWMCLALRFFSLF,35000
5,YYVPLLASPTFWAVTLPLYCVFVGIQVFFVFLEAAGLSLHLVVIFWWLGWWAG,53000
6,RFLLCLLCMELLLHFVYVGAINSSLPVWDSYTPAQLSLLSFQNLIIIWLKLLL,36800
7,MWLFLLMFYIVLWLRKAGAFISSSFSSFSVLSFSYLFLCGYLPFSFLFLTFSL,54200
8,AGGGNHPPPPPPPPPPAGRSGGAPPPPPPPPPPPPGAGGGNHPPPPPPPPPPP,23500
9,MCLCLLLLLLLHVFIFFMSFYPSGWPPSYSIIFFLWSFILVVFYPCKFFFLVV,70400
10,VTCGLLKVAIDLINHFPLFALVLRVKDPRRLPGSTYFRVIHDKGQTILMLEVD,40300
11,MRKVLANVPGPGGTWGLGFISGVLLVNPKRLLGYLLRCWSTHHGKLARCLWPI,47600
12,MTNRLHIICHICVFYGYVLMFPAITSYYFILLCILILILHLFIFILAHFYKDR,37300
13,EKKGKEGKRMRREKREIKEPEEKWEEKKKKPEEPEDVGARPRKPRREESKSRA,37600
14,NVSPGTTDAGPWMRAIEELAGTGVYEHLGYGWKGWLFWLRDRSFCNMLMTGIW,54200
15,IDVCLRERDANDYSRQVLGHYWENGIPLSSNRIIHDLLVILRNVIARVITAAK,42300
16,ALILIFSQLTFTPYALESRNLHVAVRIFRVLIDLLEQAKSGKIRLTILQFLMR,71100
17,MHFFSFFFLCFYFYFLSSLLGSMDYTALYFPFFFCSNYRRCYMCFLVEPFFFL,78500
18,AAPTETAPPAAEPAPVAAPIETKAAEPAAPVTEAPATTATEEVKPAVEPAKTE,49400
19,MSLKRRAHRKSRNGCRECKRRRIKCDETKPHCGHCVRHGIHCVYPESAGASPA,43000
20,GPLCMDQYRRIFGVTRRPGLSVDSTVLASDLNGRVSILVLLRNRLFRLSLPTG,42400
21,GSEDRRKSSRSRDRRERRSRSRDKSHRDRERERDKDRERRHRDHEPRHSHRDR,43300
22,TGNSVWAFHALLSKGYFHMLCKDIDINPERVLATLMLVLSHIFERQLCKHSDI,48500
23,LGNISAERHVLNTLSKIPAAQLHDALLVLPFSSLPALFTFLAIWVRKQWNVTL,56000
24,KAETTAAKDAGAEPEAKPMRGGGREKKRDAEEAVKKEAVKEKPSKGSTKPASK,< 6570
25,RAGGRGREKKKEAEGPKKRRRKGAGGGDGQRARRKDKGRRRGEIARTAEGRNG,20500
26,VGLVGMSLSILGKDHLVWNALAACRTEISEVFERMLRALYHWMIDVAHQYCGK,56300
27,LLFFFSFFFVCFKYFPPFFFSSFLSFSFYCLSILTYPIHYPPPVFGISGSFFV,51800

row,Sequence,transcriptional activation domain activity
1,MNLVSLAAVCLFYFFSPTLFFVPSLCSHGHLFTYGHFLLLLCSLILPWTCFRL,72000
2,IIDKLGSLTFVYARRNPITIGTFAATETAILEHYGAGNIWKYILWHWVICFYS,44400
3,LSKRPGKPPARPSPQAAVQRRSFHATSSALASKDPYKTLGVGKSASASEIKKA,39500
4,PKQYCVRPNAARLEPGERVEVQVLLQPMKEDPPEDTKCRDKFLIQSAAIPPQH,39200
5,FSLSLHICFIFSRLIMLHCIFSLLKMIPFCAKFFCFFLFLFLFSPFLLYILFV,54000
6,LFGPLDFLDFLDFLDFLDFLDFLDFLDFLDLWTFWPWTFWTVGLFGLLDFLTF,46300
7,NPERRTGGRGGEGEKGRRREERDAGNRRRGGRNRAQRPKKGRRREGGRRGRGR,48800
8,MAPVTQTEWPRQRALHSKSRNGCTTCKQRRVKCDEGKPVWPSAARTAGADRSS,50600
9,LNLRRPLAFGGMATLLTYLIVPIYFSGVCYRLRLTLPPFLFLILRVSFELFVL,67800
10,LANISLFTSFHQTDINWCGPTRLRWFGYCFCGMFVYYWLPGYFFQILTFFSWA,73700
11,ASSSDEEEQEVDDMETDSSKKRSHDETKEEEVEEEEERPKKTVKVEKPKEKKT,29200
12,FRAPYPCCLDVVFAMIWAGARVCLFDSTKALEDLLLARFVLPPHVVCLVGLAQ,48900
13,EGDDEAPVQPKGRPRKSKAAAAESADEEPRPKAVRSRPSRARKSKPVASDSDV,< 6570
14,EEEGDEDVSGSEGSSRRKGRQRNEEEDDRSAGRRSHRLKDKSRSSTRNRRGSD,13600
15,HKLALNLKTAWKGRKYEIPLFGVHIAGQYVSTYIFYEVASFKAFFNYIFSFTR,69100
16,LETGSFQNYYQKMDAENADRVYSKGVKLIASGTLPSGIFNREELFEEDSFYKY,68400
17,YYVILLSIKLFGINSSLWALLITLTNWFNLYLSCRLIPNNIEGILTIIALYYW,66500
18,IQNEDKFAESKNLSLDEFLKIFNGIYYERLRYDFNVVVIILLLTLFNHCKDFY,52700
19,FYAMVHWYKIFQSGHSIVRIFLLLIEFLYNLISLVFSWFSLANFYLCYYFLYH,49600
20,LSSSSSVQTSAATTVVLVSGSDDKLVKAAGDALRARLGVKGGGKGQKWSGKFT,17600
21,RSEKRSEERSSRSGPTDRVEGQERGSDRERGREKRGSDRESSRRDRGGEGERA,31700
22,LFCALMPIRFYTYFKQSFQYYLADLCYYVNLLLLIFLWVLPTSCSLFISVFSL,78400
23,AAAATGSKRKADDASDEEQEEGDKEGDNNKGEKQGGEPAGKKQKQTAGVKRVV,27500
24,REGEERERDGRRTSTGRRARGKGRRSRRKEGKRENRKERERKEGKEGPGQRRR,26700
25,RGDTAAPGAEDDVELHYVCFVKGGDGRLWELDGRRKGPLERGRLGEGEDVLSE,27800
26,MIGVVCALYLFFFPSFFLLFFFSTLLDDDTLIIYKFFLLWESWFVAFILFFYL,24900
27,AEDKARKEAEDKAREEAEEKAREEQEEAARARADAEAKKAALEAKREAEAKAK,16300

row,Sequence,transcriptional activation domain activity
1,LDIGHWMSSYNLLRRQSTKRYMIIMDLTRRFNTRTPNLLYLIQWGFVWGVSYY,57900
2,QQAGRTMSEGKKKRNTGKEEGEEGDEERKRKRRAEKKRKQRKRRMSKSTGEEE,31700
3,MKGIRLYFKYVLLHVLLLPPSLLPFFFPLSPLFYMSILMGFSSPFFFFFSFIH,53000
4,MLAWIYGVFFSRSIMYCPLILLITCALDFHFFYFSYLFLWGLFRLRGYIYHGW,52000
5,EIAVEEPAQPMDVDGAVEAETDATTSKQDKKDKKKKKKASKESKVEAEPEAAA,48700
6,EKEESDEDESEKGSAAGGRGKAALKTWVKRVRLIRDKGTLLGKGFGYVQFNDR,69000
7,EPVEAEAQAEAEAETKEPETKSEETAAASTETEKVEDKREATTATEKAQAAAS,< 6570
8,EEEAELAKPAKRPRESDATERDASTGDEVSKKKSKKLKAENGAPVAAPAGTSG,39300
9,AATTDGEASANEGALVPAGEGAAEGEAKKPRQRKPRVARPPRPAGEEPTGEPS,45500
10,PIGIFFFFPFVWLFRVFIFLCISYCCFLVPYVCSRGSSFFWLPVSTLFLSFLF,45000
11,QPPPPPGRKRKKAENGEPSTPAEPRRLRRSHEACARCRSKKIKVSTQASAVIL,53600
12,QAHPPVQVRKTSHKAAEQKRRDSLKTTFDDLRGTASAAAPPVGRHGRACAPGA,35300
13,NIKTFLYTCITHIYINFILCLCACITHYQVYYHYYVNIFTFIFVWLCSFFLFL,45200
14,MFCWLCYFLPFISFGFPLIYPSSVGILLWIVISGLCVFIFTLKMFLVFLLLFF,46100
15,LLICSVVALVTCLAFLTNLTSMVPNFVLACLPLTAFLIFGTHSDLLRVWCFWW,28700
16,MLHSLYVVAISKSGILSSFVNPTTTTVHYTPFEISMIGYFNLVLIWLKLLILW,61300
17,HSLISWLLKSLENGAGAIVIRKLCSALVTHFVRFSHLWPLCVRSLLYCLHANR,71400
18,SGWQRHIILHESLLNRYEHVIIVFVKSHLPSAGLLLKQFCVSGRILARMWRNG,47800
19,STARKPRKKKEAEKTVDGAEDEITEETQKPKRKASTKRTSRKTTTDKEETTAT,24200
20,PLPPSSPHWLVWIHAQDVVTMRMPSRIRPLLQELLEVIISVIQPSLHSAPQSG,49500
21,GTRAPAVHRDQRGPVDSQERAGEDVVRRERSVGQGRRAVRGARLVYAGAAALE,51500
22,QLEGDADLFLVPNFYVLRRISHLATTTLLRQLEAFSIRTPVFGVLLWKSLVAI,49100
23,IARSRNLPLDVVMYLGSDEENDMMVDTLLLLHDYISKVRSLILRVNFMTLSCA,66700
24,VSDYSMAQFRFLLKFLLVHGRWNYVRICKYTVGTFWKELLFYLTQALFQRSNG,46600
25,WMIWFRVGFACIFSSCVFLRVYGLYRIFIQRKPFTRYSFYVPFTIFTVCVFIF,69400
